Experiment: soluble on expression in E. coli; label from the status in PepcDB or PDB records

Sequence | soluble on expression in E. coli
MERPLARNEVTRLGPDSKFHHAGLRRGLSPATLRKLDAISRLRVFPRDAVVVPQGGALEYVGNVVRGVLRMERLLSDGRSQIVGLLVPTDMFGRVFSERSDYSVEAATEVTLCCFERHAFEALVRTCPDLEHAVLLAVLDELDAAREWITLRAGPTVAARLATYLLMLCRRWPHQTSELTQDAKRIVVNVPIARNDLAHYLGTTVESISRAVQAFSRDGIISILTPLRFEILDLPALIALSDNEEFDAHALLEGLREEQRVSP | not soluble
MTFLFDCLILLNILIATCQAIGRTQSTAIEGVLLCEDGPAKGVLIKLYDHDTVSPDELMDSAKTDADGHFRLSGTADEISGIEPKINIYHDCDDGILPCQRRITIFVPSKYVSNTKQPSETFNLGRLQLAGKYAGESRDCLH | soluble
MADRIELRGLTVHGRHGVYDHERVAGQRFVIDVTVWIDLAEAANSDDLADTYDYVRLASRAAEIVAGPPRKLIETVGAEIADHVMDDQRVHAVEVAVHKPQAPIPQTFDDVAVVIRRSRRGGRGWVVPAGGAV | soluble
MGEVVKLVTFLGLGKYEESEIKINGNLLDGCVKNDDSQDIFCVRQSIFPLALIEYLNHIGKQVETIFFLTKTVKESKTWDECRRFLRSNIKDFEIPERRIFK | not soluble
MAHHHHHHMMCLKLNLLDHVFANPFMNAAGVLCSTEEDLRCMTASSSGALVSKSCTSAPRDGNPEPRYMAFPLGSINSMGLPNLGFDFYLKYASDLHDYSKKPLFLSISGLSVEENVAMVRRLAPVAQEKGVLLELNLSCPNVPGKPQVAYDFEAMRTYLQQVSLAYGLPFGVKMPPYFDIAHFDTAAAVLNEFPLVKFVTCVNSVGNGLVIDAESESVVIKPKQGFGGLGGKYILPTALANVNAFYRRCPDKLVFGCGGVYSGEDAFLHILAGASMVQVGTALQEEGPGIFTRLEDELLEIMARKGYRTLEEFRGRVKTIE | not soluble
MGSDKIHHHHHHMEELRSGSSVCRVSRRGAFVSSLRISNMEILKRSSDRYATHGGMAILIPYADIVSDGTYTWHGRRYQLPRNAGYEGNFTDSIHGLVKSAYFSIIYKDVDSILLKYALERSGYPSRLNIYVNYAVQHDSLGTVISVENTGNNEAPLVCGSHPYFLYRDFWFIKFSNSAVRLFSGGDLSLRKDESVNFLTKKIEGYYDDSFYSDGMILLVSSDRMIELDRRSMPYFEVYDGKYAERRSLAVEPMTGAPNAYNNKIGLIDLKPGETFLCGFDIRVASI | not soluble
MPQDSSQGRPRGDDVWVAEAKYDCNTRGRNSIMGNGALKYRTESKNFFNLIPEEVFHNTMKYLDLFLRNLRNIII | not soluble
MANMTFSLPDPMKDWIESRIQKGEYASASDYVRDLVRRDWARRGQDFSIDELRQIVAESRASGVGSRSMDDLFAEAERVATAHGVMRE | not soluble
LSGYAQAGFSSLWLPTASSEKENYNTFDVKRITLRANVAITDKWSVTFIPDFAKRYTNLELYTSFRTCSGFGIRLGQFKTAFSIENQLSPTTIETISCGSMATNFLAAGNGSDPLMGAQSGRDVGLEIYGDLFNDILGYRLGVLNGQGINTLDGSKHKTLEGSLTLRPIECLSFTGSFMSGKTAALNDAPIKINSKQIMAGDLYDRSRWSVGGMFRSKYLDLRSEYLEGKDDDMISKGFYVTGVGRLFKNLDIIGSYDFMDLYERQQVHNITAGLQYWFFPKCRLQAQYVLSNPKGEYNNTHALLTQVQVAF | not soluble
MGSDKIHHHHHHMTEITTLSQFLTTANTQFQVYDLGRRVQHIDALAFHQIESLLAPYPYPIQGHAQLGLVFWQQSAQPYIWFLKLPLDEQGLLSPAPRSQFIQMILDALGRDLTQELTEAQQEQFANHPFSFKPNQHKLALFNALVRQQLGQPASSQYEFAAQYLSEQAVIGESSAVENESHSWEQLGLQGIADVCVRAQSLDNMDSLIRSFDFSPLPVHAALCQCLEHLPLEPSLAEKIYLLFEQASNEHKASYLAALASSPSLSIKAIAHLAQHNLLDANHLVTIAARNWQALKDDSCRKSYLEALALQEQGFFNQVFADIVAIPSLRQALLLDLRNPERSNILSIAIGGLFKAAQS | not soluble
MVGPATGRIVVTSRIVVLGGGFGGMYAARALKRRLGRAAEIELVNAENYFVFQPLLPEVGAGSITPAHAVSPLRFLLRDVFVRKATVDSVDFDRRLVTVFQGVQRRPTEIGYDHLVIALGQAADLSKMPGLEEHALTMRTLEDARRLRAHVIGQLEHAQITRLPEVKRGALTFCVVGGGFSGIETAGEMKDLIDRSLKFYPDIDPSEVRMIVVEFADRILGEMSQGLADYATRTLRERGIEVKLGTGVASATGTQLVTTTGEVIDTRTIVATIGNAPSPVVRRMGLPSERGRISVDRTLAVKGRSDVWALGDCALIALKDAPQGPRDYAPPTAQFAVREAEQLAENIASTLTGGTPQPFDYRSKGALASLGARKGVAQVFGLELKGFPAWLLWRFYYLAFLPGLTTRIFVLLNWFMDGISPRSVVQLHTRSVPPTRYVRYRAGDVIYEAGNRSDGFYTVVTGAVEMTRTDPETGLPQVRTIGPGGHFGERLILGATRRQTSVRAAEDTKVLVMDREEFLKLADSFQAFRDYFGPYMARHGMTWPPLGETDGQAAPKPVPTEKDLEHHHHHH | not soluble
MAKKTSSKGKLPPGPTPLPFIGNYLQLNTEQMYNSLMKISERYGPVFTIHLGPRRVVVLCGHDAVKEALVDQAEEFSGRGEQATFDWLFKGYGVAFSNGERAKQLRRFSIATLRGFGVGKRGIEERIQEEAGFLIDALRGTHGANIDPTFFLSRTVSNVISSIVFGDRFDYEDKEFLSLLRMMLGSFQFTATSTGQLYEMFSSVMKHLPGPQQQAFKELQGLEDFIAKKVEHNQRTLDPNSPRDFIDSFLIRMQEEEKNPNTEFYLKNLVMTTLNLFFAGTETVSTTLRYGFLLLMKHPEVEAKVHEEIDRVIGKNRQPKFEDRAKMPYTEAVIHEIQRFGDMLPMGLAHRVNKDTKFRDFFLPKGTEVFPMLGSVLRDPRFFSNPRDFNPQHFLDKKGQFKKSDAFVPFSIGKRYCFGEGLARMELFLFFTTIMQNFRFKSPQSPKDIDVSPKHVGFATIPRNYTMSFLPRHHHH | soluble
MGGSHHHHHHGMASALVRISKPKTFQAYLDDCHRRYSCAHCRAHLANHDDLISKSFQGSQGRAYLFNSVVNVGCGPAEERVLLTGLHAVADIHCENCKTTLGWKYEQAFESSQKYKEGKYIIELNHMIKDNGWD | not soluble
MRIVALEGIDGSGVSTHSRLLHARLAGAGVKSCLWKEPTEGPVGRLIRGFLRSTEGVDSDLMALLFAADRLWGLRLGVVERCGGSPEVLVVDRYKYSSLAYQGVGSGLEWVDAVNRKAPEAEILVYIDVPTEVALRRITARERREVFETPEFLERVKSMYEEVLRLARARGVKVIRVEGVRGGVERGIEDVQGEIAERVFEALGLARA | soluble
MGSDKIHHHHHHMSSINYAEKIPNNVNLSEDRKLQRALESWQPHYIDWWKEMGPEGTSTSEIYLRTAISAEPDGWAQFGHVKMEDYRWGIFLAPPEKDRKVNFGAHKGEAAWQEVPGEYRSMLRRLITVQGDTEPASVEQQRLLGKCCPSLYDLRNLFQVNVEEGRHLWAMVYLLHAHFGKDGREEAEEMLARRSGDADKPRILGAFNEKTADWLAFFMFTFITDRDGKYQLCALAESGFDPLSRSCRFMLTEEAHHMFVGESGVGRIIERACQVMKENRTDDVRKFGVIDLPTIQRYLNFHYSVTSDLYGAEVSTNAATSYNMGIKGRYEETKIGDDHQLENTTYSVLHPVNGGFQAIEVPALNALNERLRLDWAEDVAKGVERWNKIIAKHGIDFKLTLPHLAFNRAIGHFSDIAVDPSGKVISTEEFARRRDEWLPSESDLAYVLSLMGSAVTKPGQFANWIAPPARGINNQAVDFDYVRFA | not soluble
MDILQTRYFELSNPTTGEHKFYELTLHEDGTLISRYGRIGANGQNKTQQFNSVEAMLKAADKTTAEKLNKGYQVANAGETAAQETRHQRILRNVREFYELISNGDSKLAQRCSVEFKAFIEDEDNKEEYEDQDNELINNGIREAADWELVFFVDWKDTESMLDVLDTLCSNLNIDIVFDWGCDVPEDELKVGQIMLLAHEQLQQQGFALWHWDTGHDAYLGWIARMAYQTQIASCVQALDLDAAYPNPEKLTLEHHHHHH | soluble
MSKSEEKQELPLETSPYTKYEDIEDYKKNAYGTSGHQDVKPGHGGGTTDAPTPSGDAAPSAIDSANQKAKK | soluble
MYNNSELRKIQQKKLEILIDIAKFCNENKIRYWLDSGTLLGAVRHGGFIPWDDDIDIIIMQEDAKFLKENYKSENFEIVNTDEEGINFYKVISKKEQVQVGDSIAELDIDIFLVTYYPDSLALKFWNSFFHLKKNRIDRFSFSLFFTNILINLKRKLEKTKLFNYKNIEKKISYILDEAKKKNKAMPNIAYTPDCGFYLIIWREEEIFPLKKMKFEGIEFSIPNNYDTYLKKMYYSYMDLPPKEKRVPEHYQDKELKLIIKLEHHHHHH | not soluble
MEPPSSRPEEPPSWEDLYKINLMPSELFLKFRKELQGLRVGVNLELYNEPTNDYHAKLVLKPLCPERKWKFIYEPLHQEVRVLSKKIPVTRFLNLQVGVGHNFQMNAIGWKWKLTSCLGGDGVSRIRNKTTLGLSPGIDFRFGWRADFVLPEVTGALGTEEPLFNMSSGRLEASLDRVEAIVTHSDYL | soluble
MKLSKRQEQIIAVVKEHQPVSGERISDILAVSRATLRSDLSFLTLSGILKASPKVGYTYESDNMEAFFFFDVFQTKVQEIMSPPLMVAQDTSIRDAITNLFMYDVGSLYVMDEAKELLGVLSRKDLLRASLNTNIDGTPVAVCMTRVPHVKTCTPEFTILEAADTLQKYEVDSLPVVEKENPKKVIGKITKTKILTYITQQAKEAAQNR | not soluble
MGIYQWRDKKKPSGGKRRYYYKVKRKYAAGRPPTYTTLSAAEEEERKPVRARGGSYKIKAKKVAFAVVSNPKTGEARKARILRIVETPAHREYARRGIIVKGAVIDTTLGRAVVTSRPGQEGVVNAVLLEEQGQKQLEHHHHHH | soluble
GSTVPYTITVNGTSQNILSNLTFNKNQNISYKDLEGKVKSVLESNRGITDVDLRLSKQAKYTVNFKNGTKKVIDLKSGIYTANLINSSDIKSININID | soluble
NKSIRMTPSQVAFEIRGTLLPGEVFAICGSCDALGNWNPQNAVALLPENDTGESMLWKATIVLSRGVSVQYRYFKGYFLEPKTIGGPCQVIVHKWETHLQPRSITPLESEIIIDDGQFGIHNGVETLDSGWLTCQTEIRLRLHYSEKPPVSITKKKLKKSRFRVKLTLEGLEEDDDDRVSPTVLHKMSNSLEISLISDNEFKCRHSQPECGYGLQPDRWTEYSIQTMEPDNLELIFDFFEEDLSEHVVQGDALPGHVGTACLLSSTIAESGKSAGILTLPIMSRNSRKTIGKVRVDYIIIKPLPGYSCDMKSSFSKYWKPRIPLDVGHRGAGNSTTTAQLAKVQENTIASLRNAASHGAAFVEFDVHLSKDFVPVVYHDLTCCLTMKKKFDADPVELFEIPVKELTFDQLQLLKLTHVTALKSKDRKESVVQEENSFSENQPFPSLKMVLESLPEDVGFNIEIKWICQQRDGMWDGNLSTYFDMNLFLDIILKTVLENSGKRRIVFSSFDADICTMVRQKQNKYPILFLTQGKSEIYPELMDLRSRTTPIAMSFAQFENLLGINVHTEDLLRNPSYIQEAKAKGLVIFCWGDDTNDPENRRKLKELGVNGLIYDRIYDWMPEQPNIFQVEQLERLKQELPELKSCLCPTVSRFVPSSLCGESDIHVDANGIDNVENA | soluble

Source: the DeepSol protein solubility set
